Data from the nanobody polyreactivity screen of Harvey et al. (2022).

experiment: yeast display, Sf9 membrane polyspecificity reagent, FACS + sequencing; frameworks hold sequencing errors
Method in brief: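 Genes from sorted yeast were amplified by colony PCR, read by MiSeq 2 × 250 sequencing and filtered on CDR length. These cells carried a synthetic nanobody library in Saccharomyces cerevisiae BJ5465 and were sorted by FACS into low and high (top ~1%) gates on anti-HA and streptavidin fluorescence. Polyreactivity is labelled according to the gate of origin.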

Sequence	polyreactivity (PSR sort gate)
QVQLVESGGGLVQAGRSLRLSCAASGRIFGTYAMGWYRQAPGKERELVAAITQSGGRTYYADSVKGRFTISRDNAKNTVYLQMNSLKPEDSAVYFCNIVTYRGIGLGYDYWGHGTQVTVSS	high polyreactivity
QVQLVESGGGLVQAGGSLRLSCAASGRIFKYYAMGWYRQAPGKERELVATITSGGRTNYADSVKGRFTISRDNAKNTVYLQMNSLKPEDTAVYYCARRPPASSRYDYWGQGTQVTVSS	high polyreactivity
QVQLVESGGCLVKAGGSLRLSCAASGSTFHYYPMGWYRQAPGKERELFAAISTSGVRTYYADSVKGRFTISRDNAKNTVYLQMNRLKPEDTAVYYCAARRGYVKGKTYDYWGQGSQVTVSS	high polyreactivity
QVQLVESGGGLVQAGGSLRLSCAASGNIFSYYAMGWYRQAPGKERELVAAISSGGSTYYADSVKGRFTISRDNAKNTVYLQMNSLKPEDTAVYYCATSYFSYFFYEYYSWGQGTQVTVSS	low polyreactivity
QVQLVESGGGLVQAGGSLRLSCAASGSTFYGNAMGWYRQAPGKERELVAAITWGDASTYYADSVKGRFTISRDNAKNTVYLQMNSLKPEDTAVYYCAVDESYGSSSDMDYWGQGTQVTVSS	low polyreactivity
QVQLVESGGGLVQAGGSLRLSCAASGIIFYPYAMGWYSLAPGKERELVAAISQSGGTTSYADSVKGRFTISRDNAKNTVYLQMNSLKPEDTAVYYCARRVSTRKRYYYWGQGTQVTVSS	high polyreactivity
QVQLVESGGGLVQAGGSLRLSCSASGRIFGYNAMGWSRQAPGKERELVAAISYSGTSTYYADSVKGRFTISRDKAKNTVYLQMNSLKPEDTAVYYCATLAYRWSVAYEYLGQGTQVTVSS	low polyreactivity
QVQLVESGGGLVQAGGSLRLSCASSGRTFYRNAMGWYRQAPGKERELVAAITSGGSTYYADSVKGRFTISRDNAKNTVYLQMNSLKPEDNAVYYCAKRIGWVPSRSWTPAFWGQGTQVNVSS	low polyreactivity
QVQLLESGGGIVKAGGFLRLSCAASGSTFRRYAMGRYREAPGIERELVAAITGRGGSTSYADSVKGRFTISRDNAMNTVYLQMNSLKPEDTSVYYCAADDKYFYPGNGYWGQGTQVTVSS	high polyreactivity
QVQLVESGGGLVQAGGSLRLSCAASGFNFVHYAMGWYRPAPGKDRELVAAISKRGGTTYYADSVKGRFTISRDNAKNTVYLQMNSLKPEDSAVYYCNADVTNWEDDYYYWGQGTQVNVSS	high polyreactivity
QVQLVESGGGLVQAGGSLRLSCAASGIIFKYYAMGWYRQAPGKERELVAAITRSGGSTYYADSVKGRFTISRDNAKNTVYLQMYSLKPEDTAVYYCAAQTGYSYGITWQFTKYNYWGQGTQVTVSS	low polyreactivity
QVQLVESGGGLVQAGGSLRLSCAASGFTFKTNAMGWYRQAPGKERELVAAITSGGSTNYADSVKGRFTISRDNAKNTVYLQMNSLKPVDPAVYYCAADYGVWSEYAGWHAAFDYWGQGTQVTVSS	low polyreactivity
QVQLVESGGGLVQAGGSLRLSCAASGRTFYYYTMGWSRQAPGKERELVAAITSVGSTSYADSVKGRFTISRANAKNTVYLQMNSPKPEATAVYYCAADYQYVWFYYWGQGTQVTVSS	high polyreactivity
QVQLVESGGGLVQAGGSLRLSCAASGNILLFNAMGWYRQAPGKERELVATINQSGGRTYYADSVKGRFTISRDNAKNTVYLQMNSLKPEDTAVYYCAATRRYPPYFHHYDYWGQGTQVTVSS	low polyreactivity
QVQLVESGGGLVQAGGSLRLSCAASGSTFRYYAMGWYRQAPGKERELVAAITYRGSSTYYADSVKGRFTISRDNAKNTVYLQMNSLKPEDTAVYYCARRYAGDYYYWGQGTQVTVSS	high polyreactivity
QVQLVESGGGLVQAGGSLRLSCAASGRTFVAKTMGWYRQAPGKERELVAAISSSGGSTYYADSVKGRFTISRDNAKNTVYLQMNSLKPEDTAVYYCAKTHSGWWRYGYWGQGTQVTVSS	high polyreactivity
QVQLVESGGGLVQAGGSLRLSCAASGSIFRYNAMGWYRQAPGKEREFVAAITRSGGSTYADSVKGRFTISRDNAKNTVYLQMNSLKPEDTAVYYCAATFKWYSHTKPRFDYWGQGTQVTVSS	low polyreactivity
QVKLVESGGGLVQAGGSLRLSCCASGSTFSPNTMGRYRQAPGKDREVVAAITYRGANTYYADSVKGRFTISRDNAKLTVYLQMNSLKPEDTAVYYCSAVYAYHHVGFGYWGQGTQVTVSS	low polyreactivity
QDQLVESGGGLVQAGGSLRLSCAASGRTFTRNAMGWYRQAPGKERELVAAISISGGRPYYADSVKGRFTISRDNAKNTVYLQMNSLKPEDTAVYYWAKVTTSKYDYDYWGQGTQVTVSS	high polyreactivity
QVQLVESGGGLVQAGGSLRLSCAASGRTISKNAMGWYRQAPGKERELVAAISGSGGSTYYADSVKGRFTISRDNAKNTVYLQMNSLKPEDTAVYYCADRYTVSRSGYWGQGTQVTVSS	high polyreactivity
QVQLVESGGGLVQAGCSLRLSCAASGFTFSYYAMGSYRQAPGKERELVASISRSGNTYYADSVKGRFTISRDNAKNTVYLQMNSLKPEDTAVYYCAAKRKSYYSYNFDYWGQGTQVTVSS	high polyreactivity
QVQLVESGGGLVQAGGSLRLSCAASGYIFGQYAMGWYRQAPGKERELVADITRGGDTYYADSVKGRFTISRDNAKNTVYLQMNSLKPEDTAVYYCAADSFYWAWQYDYWGQGTQVTVSS	high polyreactivity

Sequence	polyreactivity (PSR sort gate)
QVQLVESGGGLVQAGGSLRLICAASGGIFYSNARGWYRQAPGKERDFVAAITRSGTSTYYADSVKGRITISRDNAKNTVYLQMNSLKPVDTAVYYCAADYRYRRYRGHVSKLYYWGQGTQVTVSS	low polyreactivity
QVKLVESGGGLVQAGGSLRLSCAASGSIFSRNTMGWSRQEPGKERELVAGISSSGSRTYYADSVKGRFTISRDNAKNTVYLQMNSLKPEDTAVYYCAKAWPDHWYSRYDYWGQGTQLTVSS	low polyreactivity
QVQLVESGGGLVQAGGSLRLSCAASGSIFQQYAMGWYRQAPGKERELVAAISWGDGSTYYADSVKGRFTISRDNAKNTVYLQMNSLKPEDTAVYYCNAYASAPLWSLEDDYWGQGTQVTVSS	low polyreactivity
QVQLVESGGGLVQAGGSRRLSCAASGRSFYGNAMGWYRQAPGTERECVAGISWRGGRTYYADSVKGRFTISRDNANNTVYLQMNSLKPEETAVYYCAASAGYRGRSGYEYWGQGTQVTVSS	high polyreactivity
QVQLVESGGGLVQAGGSLRLSCAASGRIFRSYAMGWYRQAPGKDRELVAAISSGDTTNYADSVKGRFTISRDNAKNTVYLQMNSLKPEDTAVYYCAAGFYYRGGYIQYEMNYWGQGTQVTVSS	high polyreactivity
QVQLVESGGGLVQAGGSLRLSCAASGYIFYENAMGWYRQAPGKERELVAAIRFTGGSTYYADSVKGRFTISRDNAKNTVYLQMNSLKPEDTAVYYCSKSYPDTQRYQYPRGWELDYWGQGTQVTVSS	low polyreactivity
QVQLVESGGGLVQAGGSLRLSCAASGRILFGYAMGWYRQAPGKERELVADITSTGSTNYADSVKGRFTISRDNAKNTVYLQMNSLNPEDTAVYYCNARRESYYQRYRVDYWGQGTQVTVSS	low polyreactivity
QVQLVETGGGLVQAGGSLRISCAASGLTFYLYAMGWYRQSPGKERELVAAISSTGITNYADSVKGRFTISRDNAKNTVYLQMNSLNPEDTAVYYCNADYHPFFFEFNDWGQGTQVTVSS	high polyreactivity
QVQLVESGGGLVQAGGSLRLSCAASGRIFTYYPMGWYRQAPGKQRELVAAISWNGDSTYYADSVKGRFTISRDNAKNTVYLQMNSLKPEDTAVYYCIADSFTGYDYWGQGTQVTVSS	low polyreactivity
QVQVVESGGGLVQAGGSLRLSCAASGSIFSYNAMGWYRQAPGKERELVATITWSAGSTYYADSVKGRFTISRDNAKNPVYLQMNSLKPEDTAVYYCAKRARESSSVSRVNYWFDYWGQGTQVTVSS	low polyreactivity
QVQLVESGGGLVQAGGSLRLSCAASGSTFKRNAMGWYRQAPGKERELVAAITYSGTRTYYADSVKGRFTISRDNAKNTVYLQMNSLKPEDTAVYYCAVSVPYGMDYWGQGTQVTVSS	high polyreactivity
QVQLVESGGGLVQAGGSLRLSCAASGLTFHRYAMGWYRQAPGKERELVAANNYSGGRTYYADSVKGRFTISRDNAKNTVYLQMNSLKPEDTAVYYCAAPRASGYYWGQGTQVTVSS	high polyreactivity
QVQLVESGGGVVQAGGSLRLSCAASGLIFRRYAMGWSRQAPGIDRELVAAISGNGGSTYYADSVKGRFTISRDNAKNTVYVQMTCLKPEDTAVYYCAARSLGIYNYWGQGTQVTVSS	high polyreactivity
QVQLVESGGGLVQAGGSLRLSCAASGYILYGNTMGWYRQAAGKERELVAVISGGGSTNYADSVKGRFTISRDNAKNTVYLQMNSLKPQDTAVYYCAVKTNQAGYDYWGQGTQVTVSS	low polyreactivity
QVQLVESGGGLVQAGGSLRLSCAASGSTFFIYAMGWYRQAPGKERELVAAITSGGTYADSVKGRFTISRDNAKNTVYLQMNSLKPEDTAVYYCNAGNNVVVDYDYWGQGTQVTVSS	low polyreactivity
QVQLVESGVGLVQAGGSLRLSCAASGGIFSTYTMGWYIQAPGKERELVAAITTGNSTYYADSVKGRFTISRDNAKNTVYLQMNSLKPEDTAVYYCAAFAASRDYYRRLIHDGYDYWGQGTQVTVSS	low polyreactivity
QVQLVETGGGLVQAGGSLRLSSAASGIIFKTYAMGWYRQARGKERELLAGIDYSGGGTSYADSVKGRFTISRDNAKNTVYLQMNSLKPEDTAVYYCNAEWWSWGSDSYTYDYPETYDYRGQGTQVTVSS	low polyreactivity
QVQLVESGGGLVQAGGSLRLSCAASGLIFARNAMVWYRQAPGKERELVAAIAKRGGSTFYADSVKVRFTISRDNAKNTVYLQMNSLKPEDTAVYYCNARSSETWHGDYWGQGTQVTVSS	high polyreactivity
QVQLVESGGGLVQAGGSLRLSCAASGSIFRIYAMGWYRQATGKETELVAAITWSGGSTYYADSVKGRFTISRDNAKNSVYLQMNSLKPEDTAVYYCAAVVIYWYQRVGYRSDYWGQGTQVTVSS	high polyreactivity
QVQLVESGGGLVQAGGSLRLSCAASALTLRHYAMGWYRQAPGKERELVARIRISGRTYYADSVKGRFTISRDNAKNTVYLQMNSLKPEDTAVYYCAKVQFATSPPGLTLSYYYWGQGTQVTVSS	high polyreactivity
QVQLVESGGALVQAGGSLRLSCAASGSIFDHNAMGWYRQAPGKERELVAAITWSGTSTYYADSVKGRFTISRDNAKNTVYLQMNSLIPEETAVYYCAAYLYGAVRAYPYRWGRYNYWGQGTQVTVSS	high polyreactivity
